Measured values from the supplement of paper PMC10567573.
± gives the standard deviation.

Test: protein stability index of a GFP-peptide fusion (GPS, HEK-293T) (PSI 1-6); higher = more stable
Conditions: c terminus: a fixed tail appended
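Also: 24-mer peptide tiles fused after GFP, lentivirally expressed, FACS-sorted into six equal bins by GFP/DsRed ratio, decoded by Illumina sequencing, PSI is the read-weighted mean bin number.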

Sequence | protein stability index (treatment: DMSO) | protein stability index (treatment: MLN4924 1 uM, 8 h)
SATSKLIHPDEDISLEERRAQLPK [ZNF207] | 4.9 ± 0.28 | 5.08 ± 0.2
SQIRLNREHKETCEMDWSDKMEAY [TEKT4] | 4.47 ± 0.11 | 4.58 ± 0.28
LEAVAGALVVALWGPLQDSLEHTL [TSPAN10] | 3.12 ± 0.95 | 3.57 ± 0.42
RFPESHLPIQTPGAFLRTCLLSSN [TLE6] | 2.71 ± 0.14 | 2.6 ± 0.26
IVVGRLKVALEPQLWELGKVLRKA [LPCAT4] | 2.31 ± 0.37 | 2.61 ± 0.49
PTTSHRLSRHDKAVQRFCLIGSLS [NETO1] | 2.28 ± 0.23 | 2.45 ± 0.48
QHHHHHHHHHGRDFLLRAASFDVC [RHOBTB2] | 2.55 ± 0.14 | 2.58 ± 0.2
HWDLAELLPNQSHGNQSAGEDQAF [SLC22A15] | 4.85 ± 0.28 | 4.8 ± 0.28
DPGQQFTWEHSNLEVNKPKNRYAN [PTPRD] | 4.99 ± 0.39 | 4.98 ± 0.26
VVKVLLESGASIEDHNENGHTPLM [ANKRD17] | 3.17 ± 0.25 | 3.25 ± 0.26
ADPLDTPPDSKEGIVVESNHDSHM [PDZK1] | 5.53 ± 0.1 | 5.36 ± 0.33
QFYRNLGKSGLRVSCLGLGTWVTF [KCNAB2] | 2.24 ± 0.86 | 2.2 ± 0.32
DSYESYGNSRSAPPTRGPPPSYGG [RBMX] | 4.27 ± 0.35 | 4.33 ± 0.4
KKKKDKEKEKEKHKVKAEEEKKAK [BRD3] | 5.2 ± 0.3 | 5.66 ± 0.13
TNSDTPTSFNHMDSDKLSGLWSRI [TOR1AIP2] | 3.21 ± 0.21 | 3.1 ± 0.39
NRLSIGLQSLDDTELRLLGRTHSA [RSAD1] | 3.77 ± 0.22 | 3.79 ± 0.28
SHRPNQHNTVKLGAFQAQEKELVF [PRIM1] | 3.06 ± 0.62 | 3.25 ± 0.37
RDAKAAMAGRLMIRKLVAEKLNIP [AASDHPPT] | 2.62 ± 0.28 | 2.79 ± 0.36
KWLPQQNAAHSLLSTNDKTIKLWK [PPP2R2C] | 2.88 ± 0.096 | 3.09 ± 0.32
MMHGLKPLSLVKRTDLKDLIIFDK [CEP70] | 2.37 ± 0.12 | 2.92 ± 0.47
EESRDPTLYANNVQRVMAQALGIP [LPCAT4] | 3.71 ± 0.39 | 3.89 ± 0.33
PPALLPLYFQWYIFYFVIQRKKWV [FADS1] | 2.68 ± 0.059 | 2.73 ± 1.6

Sequence | protein stability index (treatment: DMSO) | protein stability index (treatment: MLN4924 1 uM, 8 h)
AQSRLEDPGQDLVPKQAIQVQEAD [DLX1] | 5.35 ± 0.18 | 5.32 ± 0.27
SFACQCPEGHVLRSDGKTCAKLDS [MATN2] | 4.41 ± 0.39 | 4.88 ± 0.27
IAKELSKTYQETPEIDMFLNVATF [ZBED1] | 2.07 ± 0.24 | 2.12 ± 0.16
GPQTPKACDSKLTFDAITTIRGEV [MMP1] | 3.69 ± 0.28 | 3.66 ± 0.25
KIKEKYIDQEELNKTKPIWTRNPD [HSP90AB1] | 3.71 ± 0.26 | 3.96 ± 0.24
EDLLLPGACPGADEAGGGAEGDSW [WEE1] | 5.53 ± 0.12 | 5.58 ± 0.22
CSRTWTNRLCHQEMGSKKTVTQED [SPAG8] | 3.7 ± 0.13 | 3.74 ± 0.14
LRRRLEELQQELSLKDQERVAEVS [LRRC45] | 4.07 ± 0.42 | 3.89 ± 0.32
STRQTQSWTAVTPQQTWASPAEVV [C18orf25] | 3.63 ± 0.078 | 3.98 ± 0.24
YGRSWESYSSCGDFHYCDREHVCR [RBMY1A1] | 2.65 ± 0.72 | 2.66 ± 0.35
NRLSELEVANKDLTERKYKGDSTI [SASS6] | 4.71 ± 0.38 | 4.96 ± 0.38
DRFAQDSEMKKCSDYESIEVPDSY [PPEF2] | 5.15 ± 0.23 | 5.15 ± 0.34
GQESEVPYKREEEALEERRLSRGE [PKD2L1] | 5.39 ± 0.14 | 5.53 ± 0.15
FPYVVLACFLVRGLLLRGAVDGIL [SLC6A17] | 2.8 ± 0.65 | 3.12 ± 1.1
TKRDSFLKRLYRAPIDWIEEYTTG [ALG2] | 2.18 ± 0.54 | 2.23 ± 0.4
VKCNGALINTSDTVQHGAVYSLEP [SDE2] | 3.57 ± 0.5 | 3.75 ± 0.33
EMLAAACQMFLGKTEAEIAHIALE [FLOT1] | 3.15 ± 0.81 | 2.78 ± 0.34
SFHSSGEKQKQPRWREGTKDSHDP [PBXIP1] | 5.08 ± 0.17 | 5.19 ± 0.24
EDVARPTQRLWDFTQSGPIVSRAT [GALNT9] | 3.99 ± 0.056 | 3.87 ± 0.33
SDRPFKCNQCGKCFIQSSHLIRHQ [ZNF8] | 3.31 ± 0.17 | 3.76 ± 0.61
LKLLNHPNVIEYYENFLEDKALMI [NEK8] | 2.39 ± 0.4 | 2.34 ± 0.23
CALEEYVRSQYPNQPTRFGKLLLR [NR2F2] | 2.22 ± 0.17 | 2.33 ± 0.25
